# T1: MvaT (Pseudomonas aeruginosa PAO1) (UniProt Q9HW86)
# T1 sequence: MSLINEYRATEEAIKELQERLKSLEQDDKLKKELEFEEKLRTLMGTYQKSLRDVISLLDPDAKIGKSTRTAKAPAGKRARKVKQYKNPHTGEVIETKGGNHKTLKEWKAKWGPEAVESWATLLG
# T2: MvaT full-length (Pseudomonas aeruginosa PAO1?) (UniProt Q9HW86)
# T2 sequence: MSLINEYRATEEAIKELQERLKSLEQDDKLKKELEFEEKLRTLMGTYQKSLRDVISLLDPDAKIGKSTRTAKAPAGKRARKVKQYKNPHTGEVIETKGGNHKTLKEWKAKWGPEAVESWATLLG
# T3: MvaTctd WT (Pseudomonas aeruginosa PAO1, UniProt Q9HW86 77-124)
# T3 chain: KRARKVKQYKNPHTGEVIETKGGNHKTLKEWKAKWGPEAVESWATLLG
# T4: MvaTctd K105A (Pseudomonas aeruginosa PAO1, UniProt Q9HW86 77-124, K105A)
# T4 chain: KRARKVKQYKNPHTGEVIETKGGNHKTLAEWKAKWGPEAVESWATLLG
# T5: MvaTctd R80A (Pseudomonas aeruginosa PAO1, UniProt Q9HW86 77-124, R80A)
# T5 chain: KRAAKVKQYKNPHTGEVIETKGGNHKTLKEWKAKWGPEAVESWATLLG
# T6: MvaTctd N100A (Pseudomonas aeruginosa PAO1, UniProt Q9HW86 77-124, N100A)
# T6 chain: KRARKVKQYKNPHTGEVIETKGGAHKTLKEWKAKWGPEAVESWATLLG
# T7: MvaTctd K108A (Pseudomonas aeruginosa PAO1, UniProt Q9HW86 77-124, K108A)
# T7 chain: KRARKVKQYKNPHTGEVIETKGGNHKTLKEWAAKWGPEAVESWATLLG
# T8: MvaTctd K81A (Pseudomonas aeruginosa PAO1, UniProt Q9HW86 77-124, K81A)
# T8 chain: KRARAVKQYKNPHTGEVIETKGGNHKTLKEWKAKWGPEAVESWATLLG
# T9: MvaTctd K97A (Pseudomonas aeruginosa PAO1, UniProt Q9HW86 77-124, K97A)
# T9 chain: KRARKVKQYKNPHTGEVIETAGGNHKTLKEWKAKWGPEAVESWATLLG
# T10: MvaTctd K102A (Pseudomonas aeruginosa PAO1, UniProt Q9HW86 77-124, K102A)
# T10 chain: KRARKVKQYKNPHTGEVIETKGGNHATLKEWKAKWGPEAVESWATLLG
# How the values were obtained:
# [1] = biological target: T1, MvaT (Pseudomonas aeruginosa PAO1)
# [2] = system: MvaT full-length (Pseudomonas aeruginosa PAO1?); assay: competition; details: EMSA: 8 mM Tris pH 8.0, 15 mM HEPES pH 7.9, 40 mM NaCl, 40 mM KCl, 1.4 mM EDTA, 0.5 mM DTT, 9.95% glycerol, room temp, NMR: 50 mM Na phosphate, 50 mM NaCl
# [3] = system: MvaT full-length (Pseudomonas aeruginosa PAO1?); assay: EMSA; details: EMSA: 8 mM Tris pH 8.0, 15 mM HEPES pH 7.9, 40 mM NaCl, 40 mM KCl, 1.4 mM EDTA, 0.5 mM DTT, 9.95% glycerol, room temp, NMR: 50 mM Na phosphate, 50 mM NaCl
# [4] = biological target: T2, MvaT full-length (Pseudomonas aeruginosa PAO1?); assay: EMSA; details: EMSA: 8 mM Tris pH 8.0, 15 mM HEPES pH 7.9, 40 mM NaCl, 40 mM KCl, 1.4 mM EDTA, 0.5 mM DTT, 9.95% glycerol, room temp, NMR: 50 mM Na phosphate, 50 mM NaCl
# [5] = biological target: T3, MvaTctd WT; assay: ITC; 283 K; EMSA: 8 mM Tris pH 8.0, 15 mM HEPES pH 7.9, 40 mM NaCl, 40 mM KCl, 1.4 mM EDTA, 0.5 mM DTT, 9.95% glycerol, room temp; NMR: 50 mM Na phosphate, 50 mM NaCl, pH 6.0, 298 K; ITC: 283 K, 0.15 mM DNA in cell, buffer not stated (protein purified in NMR buffer); details: protein: recombinant; tags: C-terminal His6; blunt, self-complementary
# [6] = biological target: T4, MvaTctd K105A; assay: as above; details: protein: recombinant; tags: C-terminal His6; blunt, self-complementary
# [7] = biological target: T5, MvaTctd R80A; assay: as above; details: protein: recombinant; tags: C-terminal His6; blunt, self-complementary
# [8] = biological target: T6, MvaTctd N100A; assay: as above; details: protein: recombinant; tags: C-terminal His6; blunt, self-complementary
# [9] = biological target: T7, MvaTctd K108A; assay: as above; details: protein: recombinant; tags: C-terminal His6; blunt, self-complementary
# [10] = biological target: T8, MvaTctd K81A; assay: NMR titration; similar to WT; EMSA: 8 mM Tris pH 8.0, 15 mM HEPES pH 7.9, 40 mM NaCl, 40 mM KCl, 1.4 mM EDTA, 0.5 mM DTT, 9.95% glycerol, room temp; NMR: 50 mM Na phosphate, 50 mM NaCl, pH 6.0, 298 K; ITC: 283 K, 0.15 mM DNA in cell, buffer not stated (protein purified in NMR buffer); details: protein: recombinant; tags: C-terminal His6; blunt, self-complementary
# [11] = biological target: T9, MvaTctd K97A; assay: as above; details: protein: recombinant; tags: C-terminal His6; blunt, self-complementary
# [12] = biological target: T10, MvaTctd K102A; assay: ITC; 283 K; slightly lower affinity, Kd +70%; EMSA: 8 mM Tris pH 8.0, 15 mM HEPES pH 7.9, 40 mM NaCl, 40 mM KCl, 1.4 mM EDTA, 0.5 mM DTT, 9.95% glycerol, room temp; NMR: 50 mM Na phosphate, 50 mM NaCl, pH 6.0, 298 K; ITC: 283 K, 0.15 mM DNA in cell, buffer not stated (protein purified in NMR buffer); details: protein: recombinant; tags: C-terminal His6; blunt, self-complementary
Molecule,binding signal (PBM E-score (-0.5 to 0.5)) [1],also measured
ATATAATA (double strand) [8-mer ATATAATA],0.484,
AAATATAT (double strand) [8-mer AAATATAT],0.482,
AATATATA (double strand) [8-mer AATATATA],0.486,
ATATATAA (double strand) [8-mer ATATATAA],0.487,
"PA3900 204 bp fragment, unlabeled",,binding (fold molar excess) [2]: > 200
ATATTAAT (double strand) [8-mer ATATTAAT],0.484,
cupA1 promoter 340 bp,,Kd [3]: 57 nM
AATATTAA (double strand) [8-mer AATATTAA],0.478,
CCGCAGGTGGCTGAACAGGCCGTGCGCTGGCTGGTCGAGCTGCAGGGCGGCGCCGACGACGAACGCCTGCGCCAGGCCTGGCAGCGCTGGCGCCAGGCGGCCCCGGAACACGAGCAGGCCTGGCGCCACATCGAGGCGGTCAACCAGCGCCTGGCCGGGATAGGCACGCCACTGGCCCTGGCCGCCATCAACGCACCGCATTCG (double strand) [PA3900 204 bp fragment],,Kd [4]: 154 nM
TATTATAA (double strand) [8-mer TATTATAA],0.48,
TATATATA (double strand) [8-mer TATATATA],0.493,
TTATATAA (double strand) [8-mer TTATATAA],0.483,
PA3900 204 bp fragment,,Kd ([3]; apparent Kd): 154 nM
ATATATAT (double strand) [8-mer ATATATAT],0.491,
TTAATTAA (double strand) [8-mer TTAATTAA],0.481,
TATATTAA (double strand) [8-mer TATATTAA],0.482,
ATATATTA (double strand) [8-mer ATATATTA],0.489,
TATTAATA (double strand) [8-mer TATTAATA],0.481,
AATATATT (double strand) [8-mer AATATATT],0.485,
GC-rich d(CGCGCGCG)2 (dsDNA) DNA 1: CGCGCGCG DNA 2: CGCGCGCG,,Kd [5]: ~360000 nM
3AT (dsDNA) DNA 1: CGCATATATGCG DNA 2: CGCATATATGCG,,Kd [5]: ~10700 nM; binding signal [6]: > 3 fold Kd increase vs WT; binding signal [7]: > 10 fold Kd increase vs WT; binding signal [8]: > 3 fold Kd increase vs WT; binding signal [9]: > 10 fold Kd increase vs WT; binding result [10]: binds; binding result [11]: binds; binding signal [12]: ~1.7 fold Kd increase vs WT

# From publication PMC4466236, “A Novel AT-Rich DNA Recognition Mechanism for Bacterial Xenogeneic Silencer MvaT”
